Numbering of substitutions follows the chain as printed.
Experiments:
[1] = system: T1, human FEAT protein (faint expression in normal tissues, aberrant overexpression in tumors)
T1 sequence: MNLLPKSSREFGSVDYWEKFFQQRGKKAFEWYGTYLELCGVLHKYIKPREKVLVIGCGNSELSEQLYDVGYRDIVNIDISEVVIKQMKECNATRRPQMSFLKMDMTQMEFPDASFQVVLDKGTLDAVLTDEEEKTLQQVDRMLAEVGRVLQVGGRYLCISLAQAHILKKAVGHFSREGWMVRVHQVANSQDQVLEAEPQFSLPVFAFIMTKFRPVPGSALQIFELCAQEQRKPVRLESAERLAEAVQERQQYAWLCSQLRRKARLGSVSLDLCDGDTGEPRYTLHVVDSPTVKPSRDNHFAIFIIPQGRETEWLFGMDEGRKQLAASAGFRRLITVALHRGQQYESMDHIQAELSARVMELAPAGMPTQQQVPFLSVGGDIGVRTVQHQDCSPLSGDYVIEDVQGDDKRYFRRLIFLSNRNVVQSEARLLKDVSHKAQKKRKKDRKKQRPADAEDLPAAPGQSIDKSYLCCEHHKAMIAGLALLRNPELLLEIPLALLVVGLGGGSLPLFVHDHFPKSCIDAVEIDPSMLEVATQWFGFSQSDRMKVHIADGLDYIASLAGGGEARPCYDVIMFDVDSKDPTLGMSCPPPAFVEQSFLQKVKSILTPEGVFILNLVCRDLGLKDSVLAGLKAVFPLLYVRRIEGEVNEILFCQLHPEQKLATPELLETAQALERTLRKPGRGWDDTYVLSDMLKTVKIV

[2] = system: T2, human FEAT D274A/D288A mutant
T2 sequence: T1 sequence with D274A, D288A

| Substance | cleavage of in vitro transcribed/translated [35S]-FEAT (SDS-PAGE, autoradiography) [1] | caspase-3 cleavage of FEAT with Asp-to-Ala mutations in the cleavage sites [2] |
| --- | --- | --- |
| His-tagged recombinant caspase-3 | FEAT transcribed/translated in vitro was cleaved by caspase-3, but not by caspase-6 | are resistant to caspase-3 cleavage |
| His-tagged recombinant caspase-6 | FEAT transcribed/translated in vitro was cleaved by caspase-3, but not by caspase-6 |  |
